The record followed here is article doi:10.1101/2020.06.17.158394 (bioRxiv, 2020).

The target in one test is KaiC-EE (S. elongatus) (UniProt Q79PF4). In words: fluorescence polarisation. For orientation: In fluorescence polarisation assays a small probe gives low polarisation when free and higher when bound to something large.
The target in a further test is T1, KaiC (S. elongatus, UniProt Q79PF4 1-519).
T1 sequence: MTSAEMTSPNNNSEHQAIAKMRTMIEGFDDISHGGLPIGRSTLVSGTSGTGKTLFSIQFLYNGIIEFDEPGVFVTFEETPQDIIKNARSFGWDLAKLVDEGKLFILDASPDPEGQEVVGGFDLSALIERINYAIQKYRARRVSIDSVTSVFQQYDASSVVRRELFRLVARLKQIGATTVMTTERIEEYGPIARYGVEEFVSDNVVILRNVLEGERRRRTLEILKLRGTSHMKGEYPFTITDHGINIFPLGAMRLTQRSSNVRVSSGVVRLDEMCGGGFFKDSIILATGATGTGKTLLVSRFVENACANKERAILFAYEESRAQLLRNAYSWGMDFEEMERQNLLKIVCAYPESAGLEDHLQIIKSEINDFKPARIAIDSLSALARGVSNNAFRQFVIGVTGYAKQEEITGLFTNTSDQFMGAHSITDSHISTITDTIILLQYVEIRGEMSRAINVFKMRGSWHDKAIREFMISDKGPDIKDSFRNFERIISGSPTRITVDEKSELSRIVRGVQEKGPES
In words: fluorescence polarisation.

Bounds are passed on as bounds.

B1: full-length SasA (enzyme)
chain: MGESLSPQALAQPLLLQLFVDTRPLSQHIVQRVKNILAAVEATVPISLQVINVADQPQLVEYYRLVVTPALVKIGPGSRQVLSGIDLTDQLANQLPQWLVQQEAFFADREPPEVNIPFTELGQPETPALQQADAFFQLQQQYADLSERTKFLEQVIALVAHDLRNPLTAALLAVDTIQIRSQSFSVATAKEMQGLCSLFDQARSQLREIERMIAEILEATRHSGESLRINPREVVFEPLLQQVLEQLHERWRSKQQQLITDVPGDLPTLYADPDRLRQVLVNLLDNAIKYTPPGGTITIAALHRTSQKVQISISDTGSGIPRDQLSVIFKNLVRLSRDSSQEGYGIGLSVCQRIVQAHFGRIWVASELGQGSTFHFTMPVYRYTMPC
As for B1, in the test with KaiC-EE (S. elongatus), the fold increase in affinity against SasAtrx is > 100 fold. Further, the binding result in the test with KaiC is reported as “binds”.
